Measurements published in the nanobody polyreactivity screen of Harvey et al. (2022).

assay: yeast display, Sf9 membrane polyspecificity reagent, FACS + sequencing; frameworks hold sequencing errors
How it was run: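 In a synthetic yeast display library (Saccharomyces cerevisiae BJ5465), nanobody expression was induced with galactose for 36–48 hours. FACS gates were set low and high (top ~1%) using anti-HA fluorescence for expression and streptavidin fluorescence for binding of the Sf9 membrane reagent. Each polyreactivity label is drawn from the gate of origin.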

Row | Sequence | polyreactivity (PSR sort gate)
1 | QVQLVESGGRLVQAGGSLRLSCAASGITFGNAMGWYRQAPGKERELVAGITFSSGSTYYADSVKGRFTISRDNAKNTVYLLMNSLKPEDTAVYYCATDSSKHPYSPTLLKFDYWGQGTQVTVSS | low polyreactivity
2 | QVQLVESGGRLVQAGGSLRLSCAASGLTFPVYAMGWYRQAPGKEREFVASISGRGASTYYADSVKGRFTISRDNAKNTVYLQMNSLKPEDTAVYYCNADVWLLSYFPEYDYWGQGTQVTVSS | low polyreactivity
3 | QVQLVESGGRLVQAGGSLRLSCAASGRIFAQYAMGWYRQAPGKERELVAAISGRGRTTYYADSVKGRFTISRDNEKNNVYLQMNSVKPEDTAAYYCAAKSTYVAGDYSGQGTQVTVSS | high polyreactivity
4 | QVQLVESGGRLVQAGGSLRLSCAASGRIFIYNAMGWYRQAPGKERELVAAISVSGGRTYYADSVKGRFTISRDNAKNTVYLQMNSLKPEDTAVYYCNKVRVGSLRGYWGQGTQVTVSS | high polyreactivity
5 | QVQLVESGGRLVQAGGSLRLSCAASGRIFRRNAMGWYRQAPGKERELVAAISSSGGRTYYADSVKGRFTISRDNAKNTVYLQMNSLKPEDTAVYYCATRESLEPGYYWGQGTQVTVSS | high polyreactivity
6 | QVQLVESGGRLVQAGGSLRLSCAASGRIFVRNAKGWYRQAPGKERELVADITNGGSTNYADSVKGRFTISRDNAKNTVYLQMNSLKPEDTAVVYWAADTLGVYDGDYWGQGTQVTVSS | low polyreactivity
7 | QVQLVESGGRLVQAGGSLRLSCAASGRIIYGYAMGWYRQAPGKERELVATITWSGGSTYYADSVKGRFTISRDNAKNTVYLQMNSLKPEDTAVYYCAAYSPFIYQAYRYDYWGQGTLVTVSS | low polyreactivity
8 | QVQLVESGGRLVQAGGSLRLSCAASGRTFPVYAMGWYRQAPGKERELVAAISWSGGSTYYADSVKGRFTISRDNAKNTVYLQMNSLKPEDTAVYYCAKAYHLGLGYRFDYWGQGTQVTVSS | high polyreactivity
9 | QVQLVESGGRLVQAGGSLRLSCAASGSIFGGNDMGWYRQAPGKERELVAAITSSGGSTYYADSVKGRFTISRDNAKNTVYLQMNSLKPEDTAVYYCNADYYGPYRDYGYWGQGTQVTVSS | low polyreactivity
10 | QVQLVESGGRLVQAGGSLRLSCAASGSIFTVYAMGCYRQAPGKERELVAAIRRTGSRTYYADSVKGRFTNSRDNAKNTVYLQMNSLKPEDTAVYYCAADVWFDRRSVRLNYWGQGTQVTVSS | high polyreactivity
11 | QVQLVESGGRLVQAGGSLRLSCAASGSILDGNTMGWYRQAPGKEMELVAAITWDGTSTYYADSVKGRFTISRDNAKNTVYLQMNSLKPEDTAVYYCAATKGYSDQSTGYYAYIHYDYWGQGTQVTVSS | low polyreactivity
12 | QVQLVESGGRLVQAGGSLRLSCAASGSNFETYDMGWYRQAPRKERELVAAITLSGGSTYYADSVKGRFTISRDNAKNTVYLQMNSLKPEDTAVYYCAADDSGVKVWEGDYWGQGTQVTVSS | low polyreactivity
13 | QVQLVESGGRLVQAGGSLRLSCAASGSTFDYNAMGWYRQEPGKESEFVAAITSTGGNTYYADSVKGRFTISRDNAKNTVYLQMNSLKPEDTAVDYCNKDVARYPYGKFDYWGQGTQVTVSS | low polyreactivity
14 | QVQLVESGGRLVQAGGSLRLSCAASGSTFHSYVMGWYRQAPGKERELVAAITSRGGSTNYADSVKGRFTISRDNAKNTVYLKMNSLIPEDTAVYYCAADCYWGWSYFRYDYWGQVTQVTVSS | low polyreactivity
15 | QVQLVESGGRLVQAGGSLRLSCAASGSTFTVIGMGWYRQAPGKERELVASITWSGGSTYYADSVKGRFTISRDNAKNTVYLQMTSLIPEDTAVYYCAADEKLYITGYDYWGQGTQVTVSS | low polyreactivity
16 | QVQLVESGGRLVQAGGSLRLSCAASGSTFYPYAMGWYRQAPGKERELVAAINGNGGRTYYADSVKGRFTISRDNAKNTVYLQMNSLKPEDTAVFYCAVVRVAWGHRSDYWGQGTQVTVSS | high polyreactivity
17 | QVQLVESGGRLVQAGGSLRLSCAASGYTFPYANGWYRQAPGKERELVAGITSSGGSTYYADSVKGRFTISRDNAKNTVYLQMNSVKPEDTAVYYCNADVFVWLYPHYLIFDYWGQGTQVTVSS | low polyreactivity
18 | QVQLVESGGRLVQAGGSLRLSCAATGSTFYKNPMGRYRHAPRKEREVVAAISTSGGSTYYADSLKGRFTISRDNAKNTVYLHMNRLKPEDTAVNYCATRRRIPSSCYYDNDYWGQGTQVTVSS | high polyreactivity
19 | QVQLVESGGRLVQAGGSLRLSCASSGRTFYPNAMGWYRHAPGKESELVAGIRSSGDSTYYADSVKGRFTISRDNAKNTVYLQMNSLKPEDTAVYYCNRDLTPSYDYWGQCTQVTVSS | low polyreactivity
20 | QVQLVESGGRLVQAGGSLRLSSAASGRTFTSYAMGWYRQSPGKERELVAAISRRGGSTYYADSVKGRFTISRDNAKNTVYLQMNSLKPEDTAVYYCNKATRYYLVELNYWGQGTQVTVSS | high polyreactivity
21 | QVQLVESGGRLVQAGGSLRLTCAASGRTFNYYAMGWYRQAPGKERELVAAISRSGGSTYYADSVKGRFTISRDNAKNTVYLQMNSLKPEDTAVYYCNRDRGSIYGWGQGTQVTVSS | high polyreactivity

Row | Sequence | polyreactivity (PSR sort gate)
22 | QVQLVESGGRLVQAGGSLRLTLAASGNTRGSYAMGWYRQAPGKEREFVATISKRGGSTYYADSVKGRFTISRDNAKNTVYLQMNSLKPEDTAVYYCNKDPYSIYRPGSGQGYAFNYWGQGTQVTVSS | high polyreactivity
23 | QVQLVESGGRLVQAGGSLRVSCAASGSIFRIYSMGWYRQAPGKERELVATISSTGSTYYADSVKGRFTISRDNAKNSVYLQLNSQKPEDTAVYYCAALWKVSSRYWRMDYWGQGTQVTVSS | high polyreactivity
24 | QVQLVESGGRLVQAGGSRRLSCAGSGSIFHHNAMGSYRQAPGKESELVAAISSRSGNTYYADSVKGRFTISRDNAKNTVYLQMNSLKPEDPAVYYCAAGIRLSYSTYDSWGQGTQVTVSS | high polyreactivity
25 | QVQLVESGGRLVQARGSLRLSCAASGSIFATYVMGWYRQAPGKERELVATITYSGDSTYYADSVKGRFTISRDNAKNTVYLQMNSVKPEDTAVYYCAADYFTLYPYRGFDYWGQGTQVTVSS | low polyreactivity
26 | QVQLVESGGSLVQAGGSLRLSCAASGFIFQDNAMGWYRQAPGKERELVAAIRSTGSTNYADSVKGRFTISRDNAKNTVYLQMNSLKPEDTAVYYCNAGKYQSDTPSLVPTEYPAFYYWGQGTQVTVSS | low polyreactivity
27 | QVQLVESGGSLVQAGGSLRLSCSASGFIFYTNAMGWYRQAPGKERELVAAISSRGTRTYYADSVKGRFTISRDNAKNSVYLQLNSLKPEDTAVYYCAVRTRYLGLEYYYWGQGSQVTVSS | high polyreactivity
28 | QVQLVESGGSLVQAGGSLRLSSAASGITFSDYAMRWYRPAPGKESELVAGITSGGSTYYADSVKGRFTISRDNAKNTVYLQMNSLKPEDSAVYYCAAVRRWKYDWGQGTQVTVSS | high polyreactivity
29 | QVQLVESGGVLDQAGGSLRLSCAASGRIYFNKAMGWYRPAPGKEWELVAAINAGGRTNYADSVKGRFTISRDNEKNTVFLHMTSLKQEDTSVYYCNADDNPVWEYDYWGQGTQVTVSS | low polyreactivity
30 | QVQLVESGGVLGQAGGSLRLSCAPSGSLIGGYAMGWYRQAPGKQRELVAAISYRGATTYYADSVKGRFTISRDNSKNTVYFQMNSLKPEDTAVYYCDVAARTRARVLYGYDYGGQGTQVTVSS | low polyreactivity
31 | QVQLVESGGVLVHAGGILRLSCAASGSTIVRYAMGWYRQAPGKERELVAAKSSRGGSTYYADSVKGRFTITRDNAKNTVYLQMNILKPEDTGVYYCSAAPPGTIAYRVGSWGQGTQVTVSS | high polyreactivity
32 | QVQLVESGGVLVQAGARLRLSSAASRFTLALNTMGCYIQAPVKERELVAAISWSGGSTFADSVKGRFTISRDNAKNTFYLQMNSLKPEDTAVYYCAAPLHVAGGYSRDFGSWGQGTQVTVSS | low polyreactivity
33 | QVQLVESGGVLVQAGASLRLSCAASVRIFWLNARGCYRQAPGKEREFVASITYGSDSTYYSDSVNGRFTISRDNAKNTVYLQMNSLIPEDTSVYYCNREGWHYGPYEYWGQVTQVTVSS | low polyreactivity
34 | QVQLVESGGVLVQAGGILRLSCAASVRTFYRYAMGWYRQAPGKERELVAAITSGDRTNYADSVKGRFTMSRDNAKNTVYLQMNSLKPEYTADYYCAARRDYWAPYYYWGQGTQVTVSS | high polyreactivity
35 | QVQLVESGGVLVQAGGSLRISCAASGFIFAYNAMGWYRQAPGKETELVAAISWNGGNTYYADSVKGRFTISRDNAKNTVYLQMNSLKPEDTAVYYCAAIPKPFRSYGYWGKGTQVTVSS | high polyreactivity
36 | QVQLVESGGVLVQAGGSLRLSCAASGFIFKKYAMGWYRQEPGKEMELVAAITIGGSTYYADSVKGRFTISRDNAKNTVYLQMNSLKPEDTAVYYCAAVQGKVRGGYYWGQGTQVTVSS | high polyreactivity
37 | QVQLVESGGVLVQAGGSLRLSCAASGFIFSEYAMGWYRHAPGKERELVAAISRSGGRTYYADSVKGRFTISRDNAKNTVYLQMNSLKPEDTAVYYCAAVWWWYYNHYYYWGQGTLVTVSS | high polyreactivity
38 | QVQLVESGGVLVQAGGSLRLSCAASGFINLRYAMGWYRQAPGKERELVAAITSGGNTYYADSVKGRFTISRDNAKNTVSLQRNSLKQEDTAVYYCAAERFVITYPISRYYYWGQGTQVTVSS | low polyreactivity
39 | QVQLVESGGVLVQAGGSLRLSCAASGFTFDYYAMGWYIPAPGKERELVASISYNGGITNYADSVQGRFTISRDNAKNTVFLHMHSLKPEDTAVYYWNAVPLYYWRFDYWGQGTQVTVSS | low polyreactivity
40 | QVQLVESGGVLVQAGGSLRLSCAASGFTFSHNAMGWYRLARGKERELVAAISKGGSSTYYADSVKGRFTISRDNAKNTVYLQMNSLKPEDTAVYYCARPSPHKGYDYWGQGTQVTESS | high polyreactivity
41 | QVQLVESGGVLVQAGGSLRLSCAASGFTFSLYAMGWYRQAPGKERELVASISRSGGSTYYADSVKGRFTISRDNAKNTVYLQMNSLKPEDTAVYSCAARWRPYKYDSWGQGTQVTVSS | high polyreactivity
